Here are results for eight molecules from patent US9862971B2 (BUNDESREPUBLIK DEUTSCHLAND, LETZTVERTRETEN DURCH DEN …, dated 2018).

The chains are these.
B1: HcΔ19 (other)
chain: MSRIVINREHLMIDRPYVLLAVLFVMFLSLIGLLAIAGIRLHRAAIYTAEIHKSLSTNLDVTNSIEHQVKDVLTPLFKIIGDEVGLRTPQRFTDLVKFISDKIKFLNPDREYDFRDLTWCINPPERIKLDYDQYCADVAAEELMNALVNSTLLETRTTNQFLAVSKGNCSGPTTIRGQFSNMSLSLLDLYLGRGYNVSSIVTMTSQGMYGGTYLVEKPNLSSKRSELSQLSMYRVFEVGVIRNPGLGAPVFHMTNYLEQPVSNDLSNCMVALGELKLAALCHGEDSITIPYQGSGKGVSFQLVKLGVWKSPTDMQSWVPLSTDDPVIDRLYLSSHRGVIADNQAKWAVPTTRTDDKLRMETCFQQACKGKIQALCENPEWAPLKDNRIPSYGVLSVDLSLTVELKIKIASGFGPLITHGSGMDLYKSNHNNVYWLTIPPMKNLALGVINTLEWIPRFKVSPYLFTVPIKEAGGDCHAPTYLPAEVDGDVKLSSNLVILPGQDLQYVLATYDTSRVEHAVVYYVYSPSRSFSYFYPFRLPIKGVPIELQVECFTWDQKLWCRHFCVLADSESGGHITHSGMVGMGVSCTVTREDGTNRR
B2: HcΔ24+4A (other)
chain: MAAAANREHLMIDRPYVLLAVLFVMFLSLIGLLAIAGIRLHRAAIYTAEIHKSLSTNLDVTNSIEHQVKDVLTPLFKIIGDEVGLRTPQRFTDLVKFISDKIKFLNPDREYDFRDLTWCINPPERIKLDYDQYCADVAAEELMNALVNSTLLETRTTNQFLAVSKGNCSGPTTIRGQFSNMSLSLLDLYLGRGYNVSSIVTMTSQGMYGGTYLVEKPNLSSKRSELSQLSMYRVFEVGVIRNPGLGAPVFHMTNYLEQPVSNDLSNCMVALGELKLAALCHGEDSITIPYQGSGKGVSFQLVKLGVWKSPTDMQSWVPLSTDDPVIDRLYLSSHRGVIADNQAKWAVPTTRTDDKLRMETCFQQACKGKIQALCENPEWAPLKDNRIPSYGVLSVDLSLTVELKIKIASGFGPLITHGSGMDLYKSNHNNVYWLTIPPMKNLALGVINTLEWIPRFKVSPYLFTVPIKEAGGDCHAPTYLPAEVDGDVKLSSNLVILPGQDLQYVLATYDTSRVEHAVVYYVYSPSRSFSYFYPFRLPIKGVPIELQVECFTWDQKLWCRHFCVLADSESGGHITHSGMVGMGVSCTVTREDGTNRR
B3: HcΔ14 (other)
chain: MPHPKGSRIVINREHLMIDRPYVLLAVLFVMFLSLIGLLAIAGIRLHRAAIYTAEIHKSLSTNLDVTNSIEHQVKDVLTPLFKIIGDEVGLRTPQRFTDLVKFISDKIKFLNPDREYDFRDLTWCINPPERIKLDYDQYCADVAAEELMNALVNSTLLETRTTNQFLAVSKGNCSGPTTIRGQFSNMSLSLLDLYLGRGYNVSSIVTMTSQGMYGGTYLVEKPNLSSKRSELSQLSMYRVFEVGVIRNPGLGAPVFHMTNYLEQPVSNDLSNCMVALGELKLAALCHGEDSITIPYQGSGKGVSFQLVKLGVWKSPTDMQSWVPLSTDDPVIDRLYLSSHRGVIADNQAKWAVPTTRTDDKLRMETCFQQACKGKIQALCENPEWAPLKDNRIPSYGVLSVDLSLTVELKIKIASGFGPLITHGSGMDLYKSNHNNVYWLTIPPMKNLALGVINTLEWIPRFKVSPYLFTVPIKEAGGDCHAPTYLPAEVDGDVKLSSNLVILPGQDLQYVLATYDTSRVEHAVVYYVYSPSRSFSYFYPFRLPIKGVPIELQVECFTWDQKLWCRHFCVLADSESGGHITHSGMVGMGVSCTVTREDGTNRR
B4: HcΔ18 (other)
chain: MGSRIVINREHLMIDRPYVLLAVLFVMFLSLIGLLAIAGIRLHRAAIYTAEIHKSLSTNLDVTNSIEHQVKDVLTPLFKIIGDEVGLRTPQRFTDLVKFISDKIKFLNPDREYDFRDLTWCINPPERIKLDYDQYCADVAAEELMNALVNSTLLETRTTNQFLAVSKGNCSGPTTIRGQFSNMSLSLLDLYLGRGYNVSSIVTMTSQGMYGGTYLVEKPNLSSKRSELSQLSMYRVFEVGVIRNPGLGAPVFHMTNYLEQPVSNDLSNCMVALGELKLAALCHGEDSITIPYQGSGKGVSFQLVKLGVWKSPTDMQSWVPLSTDDPVIDRLYLSSHRGVIADNQAKWAVPTTRTDDKLRMETCFQQACKGKIQALCENPEWAPLKDNRIPSYGVLSVDLSLTVELKIKIASGFGPLITHGSGMDLYKSNHNNVYWLTIPPMKNLALGVINTLEWIPRFKVSPYLFTVPIKEAGGDCHAPTYLPAEVDGDVKLSSNLVILPGQDLQYVLATYDTSRVEHAVVYYVYSPSRSFSYFYPFRLPIKGVPIELQVECFTWDQKLWCRHFCVLADSESGGHITHSGMVGMGVSCTVTREDGTNRR
B5: HcΔ23 (other)
chain: MINREHLMIDRPYVLLAVLFVMFLSLIGLLAIAGIRLHRAAIYTAEIHKSLSTNLDVTNSIEHQVKDVLTPLFKIIGDEVGLRTPQRFTDLVKFISDKIKFLNPDREYDFRDLTWCINPPERIKLDYDQYCADVAAEELMNALVNSTLLETRTTNQFLAVSKGNCSGPTTIRGQFSNMSLSLLDLYLGRGYNVSSIVTMTSQGMYGGTYLVEKPNLSSKRSELSQLSMYRVFEVGVIRNPGLGAPVFHMTNYLEQPVSNDLSNCMVALGELKLAALCHGEDSITIPYQGSGKGVSFQLVKLGVWKSPTDMQSWVPLSTDDPVIDRLYLSSHRGVIADNQAKWAVPTTRTDDKLRMETCFQQACKGKIQALCENPEWAPLKDNRIPSYGVLSVDLSLTVELKIKIASGFGPLITHGSGMDLYKSNHNNVYWLTIPPMKNLALGVINTLEWIPRFKVSPYLFTVPIKEAGGDCHAPTYLPAEVDGDVKLSSNLVILPGQDLQYVLATYDTSRVEHAVVYYVYSPSRSFSYFYPFRLPIKGVPIELQVECFTWDQKLWCRHFCVLADSESGGHITHSGMVGMGVSCTVTREDGTNRR
B6: HcΔ21 (other)
chain: MIVINREHLMIDRPYVLLAVLFVMFLSLIGLLAIAGIRLHRAAIYTAEIHKSLSTNLDVTNSIEHQVKDVLTPLFKIIGDEVGLRTPQRFTDLVKFISDKIKFLNPDREYDFRDLTWCINPPERIKLDYDQYCADVAAEELMNALVNSTLLETRTTNQFLAVSKGNCSGPTTIRGQFSNMSLSLLDLYLGRGYNVSSIVTMTSQGMYGGTYLVEKPNLSSKRSELSQLSMYRVFEVGVIRNPGLGAPVFHMTNYLEQPVSNDLSNCMVALGELKLAALCHGEDSITIPYQGSGKGVSFQLVKLGVWKSPTDMQSWVPLSTDDPVIDRLYLSSHRGVIADNQAKWAVPTTRTDDKLRMETCFQQACKGKIQALCENPEWAPLKDNRIPSYGVLSVDLSLTVELKIKIASGFGPLITHGSGMDLYKSNHNNVYWLTIPPMKNLALGVINTLEWIPRFKVSPYLFTVPIKEAGGDCHAPTYLPAEVDGDVKLSSNLVILPGQDLQYVLATYDTSRVEHAVVYYVYSPSRSFSYFYPFRLPIKGVPIELQVECFTWDQKLWCRHFCVLADSESGGHITHSGMVGMGVSCTVTREDGTNRR
B7: HcΔ24 (other)
chain: MNREHLMIDRPYVLLAVLFVMFLSLIGLLAIAGIRLHRAAIYTAEIHKSLSTNLDVTNSIEHQVKDVLTPLFKIIGDEVGLRTPQRFTDLVKFISDKIKFLNPDREYDFRDLTWCINPPERIKLDYDQYCADVAAEELMNALVNSTLLETRTTNQFLAVSKGNCSGPTTIRGQFSNMSLSLLDLYLGRGYNVSSIVTMTSQGMYGGTYLVEKPNLSSKRSELSQLSMYRVFEVGVIRNPGLGAPVFHMTNYLEQPVSNDLSNCMVALGELKLAALCHGEDSITIPYQGSGKGVSFQLVKLGVWKSPTDMQSWVPLSTDDPVIDRLYLSSHRGVIADNQAKWAVPTTRTDDKLRMETCFQQACKGKIQALCENPEWAPLKDNRIPSYGVLSVDLSLTVELKIKIASGFGPLITHGSGMDLYKSNHNNVYWLTIPPMKNLALGVINTLEWIPRFKVSPYLFTVPIKEAGGDCHAPTYLPAEVDGDVKLSSNLVILPGQDLQYVLATYDTSRVEHAVVYYVYSPSRSFSYFYPFRLPIKGVPIELQVECFTWDQKLWCRHFCVLADSESGGHITHSGMVGMGVSCTVTREDGTNRR
B8: HcΔ22 (other)
chain: MVINREHLMIDRPYVLLAVLFVMFLSLIGLLAIAGIRLHRAAIYTAEIHKSLSTNLDVTNSIEHQVKDVLTPLFKIIGDEVGLRTPQRFTDLVKFISDKIKFLNPDREYDFRDLTWCINPPERIKLDYDQYCADVAAEELMNALVNSTLLETRTTNQFLAVSKGNCSGPTTIRGQFSNMSLSLLDLYLGRGYNVSSIVTMTSQGMYGGTYLVEKPNLSSKRSELSQLSMYRVFEVGVIRNPGLGAPVFHMTNYLEQPVSNDLSNCMVALGELKLAALCHGEDSITIPYQGSGKGVSFQLVKLGVWKSPTDMQSWVPLSTDDPVIDRLYLSSHRGVIADNQAKWAVPTTRTDDKLRMETCFQQACKGKIQALCENPEWAPLKDNRIPSYGVLSVDLSLTVELKIKIASGFGPLITHGSGMDLYKSNHNNVYWLTIPPMKNLALGVINTLEWIPRFKVSPYLFTVPIKEAGGDCHAPTYLPAEVDGDVKLSSNLVILPGQDLQYVLATYDTSRVEHAVVYYVYSPSRSFSYFYPFRLPIKGVPIELQVECFTWDQKLWCRHFCVLADSESGGHITHSGMVGMGVSCTVTREDGTNRR

The target in one experiment is T1, CD46 (human, UniProt P15529). Description: cell-based or functional assay.
For the molecule B1, the “titer [t.u./ml] of HIV-1 vector particles on 293T cells, concentrated supernatant” value (from here on “titer … on 293T cells, concentrated supernatant”) turned out to be 200000 t.u./ml and the “titer [t.u./ml] of HIV-1 vector particles on U-87MG cells, concentrated supernatant” value was no less than 1e+06 t.u./ml. Regarding B2, the “titer … on 293T cells, concentrated supernatant” value worked out at 1.6e+06 t.u./ml and the “titer [t.u./ml] of HIV-1 vector particles on U-87MG cells, concentrated supernatant” value was no less than 1e+06 t.u./ml. As for B3, the “titer … on 293T cells, concentrated supernatant” value was 2900 t.u./ml and the “titer [t.u./ml] of HIV-1 vector particles on U-87MG cells, concentrated supernatant” value was determined as 3420 t.u./ml. Regarding B4, the “titer … on 293T cells, concentrated supernatant” value stood at 1e+06 t.u./ml and the “titer [t.u./ml] of HIV-1 vector particles on U-87MG cells, concentrated supernatant” value is no less than 1e+06 t.u./ml.

The target in a further experiment is T1, CD46. Description: cell-based or functional assay. The source holds these as a separate data set.
Consider B5, for which the “titer [t.u./ml] of HIV-1 vector particles on HT1080 cells, not concentrated supernatant” value (“titer [t.u./ml] … not concentrated supernatant” for short) is 130 t.u./ml. With B6, the “titer [t.u./ml] … not concentrated supernatant” value worked out at 1500 t.u./ml.

Turning to B7, the “titer [t.u./ml] … not concentrated supernatant” value is 88 t.u./ml. Still for that read-out and setting: under B8 stands 140 t.u./ml.
